Test results from US11248019B2, “Trityl-mono-GalNAc compounds and their use” (Hoffmann-La Roche Inc., priority 2016, dated 2022).

Tests used:
Type in all cases: in vivo, C57BL6/J mice
ApoB mRNA [1] = test: ApoB mRNA knockdown in liver and kidney by qPCR, single iv dose 0.1 mg/kg, day 7 or 14 (Example 7); conditions: 0.1 mg/kg single iv dose
Method: (§1) ApoB mRNA knockdown was analyzed by qPCR. In brief, RNA was isolated from homogenized liver and kidney using MagnaPure RNA Isolation and purification system (catalog #03604721001 and #05467535001; Roche) according to the manufacturer's instructions. RT-QPCR was done using Taqman Fast Universal PCR Master Mix 2×(Applied Biosystems Cat #4364103) and Taqman gene expression assay (mApoB, Mn01545150_m1 and mGAPDH #4352339E) following the manufacturers protocol.
(§2) Female C57BL6/J mice (5/group appr. 20 g at arrival) were injected intravenous (iv) with a single dose saline or 0.1 mg/kg of GalNAc conjugated LNA antisense oligonucleotide (Compound J, K, L, B or C of the invention or reference compound M). Blood samples of 50 μl were collected pre-dosing at day minus 6, and post dosing at day 3, 7, 10 and 14. The animals were sacrificed at day 7 or 14 and total serum was collected as well as liver and kidney.
ApoB mRNA knock down was measured as described in example 4.

ALT in serum (Example 6) = test: ALT in serum (Example 6)
Method: (§3) Female C57BL6/J mice (5/group appr. 20 g at arrival) were injected intravenous (iv) with a single dose saline, 0.22 mg/kg, 0.45 mg/kg or 0.89 mg/kg, of GalNAc conjugated LNA antisense oligonucleotide (Compound H, I or J of the invention) or the naked reference compound F. Blood samples of 50 μl were collected pre-dosing at day minus 6. The animals were sacrificed at day 3. Total serum was collected as well as liver and kidney.
ALT (Alanine aminotransferase) was measured using ABX Pentra ALT CP reagent (A11A01627 Triolab, Brondby, Denmark. The results are shown in Table 13.

ALT in serum (Example 7) = conditions: 0.1 mg/kg single iv dose
Method: as §2
ALT (Alanine aminotransferase) was measured using ABX Pentra ALT CP reagent (A11A01627 Triolab, Brondby, Denmark. The results are shown in table 17.

[2] = test system: total cholesterol in serum; test: Total cholesterol in serum (Example 6); conditions: day 3
Method: as §3
Total cholesterol in serum was measured using ABX Pentra Cholesterol CP (Triolab, Brondby, Denmark) according to the manufacturer's instructions.

[3] = Oligonucleotide content in liver and kidney by ELISA (Example 6); conditions: for Oligonucleotide content in kidney tissue / Oligonucleotide content in liver tissue: day 3
Method: as §3
The oligonucleotide content in the liver and kidney was measured using ELISA (see for example Straarup et al 2010 Nucleic Acid Res Vol 38 pp 7100-7111), results are shown in Table 11A and 11B.

[4] = Oligonucleotide content in liver and kidney by ELISA (Example 7); conditions: 0.1 mg/kg single iv dose
Method: as §2
The oligonucleotide content in the liver and kidney was measured using ELISA (see for example Straarup et al 2010 Nucleic Acid Res Vol 38 pp 7100-7111), results are shown in Table 16.

ApoB mRNA [5] = test: ApoB mRNA knockdown in liver and kidney by qPCR, single iv dose, sacrifice day 3 (Example 6)
Method: as §1, §3

[6] = Oligonucleotide content in liver and kidney by ELISA (Example 4); conditions: for Oligonucleotide content, Kidney / Oligonucleotide content, Liver: day 10
Method: (§4) Female C57BL6/J mice (5/group appr. 20 g at arrival) were injected subcutaneous (sc) with a single dose saline or 0.25 mg/kg unconjugated LNA-antisense oligonucleotide (compound F) or with 0.25 mg/kg or 0.1 mg/kg of GalNAc conjugated LNA antisense oligonucleotide (Compound C or E of the invention or reference compound G). Blood samples of 50 μl were collected pre-dosing at day minus 6, and post dosing at day 3 and 7. The animals were sacrificed at day 10 and total serum was collected as well as liver and kidney.
The oligonucleotide content in the liver and kidney was measured using ELISA (see for example Straarup et al 2010 Nucleic Acid Res Vol 38 pp 7100-7111), results are shown in Table 6.

ApoB mRNA [7] = test: ApoB mRNA knockdown in liver and kidney by qPCR, single sc dose, sacrifice day 10 (Example 4); conditions: for ApoB mRNA expression as % of saline, mRNA kidney: day 10, kidney; for ApoB mRNA expression as % of saline, mRNA liver: day 10, liver
Method: as §4, §1

5′-GS^mCSaStStSgSgStSaStSTS^mCSA-3′ [Compound J]
ApoB mRNA/mGAPDH expression as % of saline, Avg kidney (ApoB mRNA [1]; Day 7, kidney): 83.9 % of saline | ApoB mRNA/mGAPDH expression as % of saline, Avg liver (ApoB mRNA [1]; Day 7, liver): 56.0 % of saline | ApoB mRNA/mGAPDH expression as % of saline, Avg kidney (ApoB mRNA [1]; Day 14, kidney): 96.8 % of saline | ApoB mRNA/mGAPDH expression as % of saline, Avg liver (ApoB mRNA [1]; Day 14, liver): 107.6 % of saline | ALT levels (U/L) in serum at day 3 as % of saline (ALT in serum (Example 6); 0.22 mg/kg single iv dose): 101 % of saline | ALT levels (U/L) in serum at day 3 as % of saline (ALT in serum (Example 6); 0.45 mg/kg single iv dose): 201 % of saline | ALT levels (U/L) in serum at day 3 as % of saline (ALT in serum (Example 6); 0.89 mg/kg single iv dose): 1558 % of saline | ALT levels (ALT in serum (Example 6); in words, highest dose (0.89 mg/kg)): some animals showed increase ALT levels | ALT levels (U/L) in serum as % of saline (ALT in serum (Example 7); Day 7): 128.6 % of saline | ALT levels (U/L) in serum as % of saline (ALT in serum (Example 7); Day 14): 126.1 % of saline | serum cholesterol percent of saline ([2]; 0.22 mg/kg single iv dose): 37.3% of saline | serum cholesterol percent of saline ([2]; 0.45 mg/kg single iv dose): 21.5% of saline | serum cholesterol percent of saline ([2]; 0.89 mg/kg single iv dose): 10.0% of saline | serum cholesterol reduction ([2]; in words, single iv dose): serum cholesterol reduction | Oligonucleotide content in kidney tissue ([3]; 0.22 mg/kg single iv dose): 0.169 µg/g | Oligonucleotide content in liver tissue ([3]; 0.22 mg/kg single iv dose): 0.313 µg/g | Oligonucleotide content in kidney tissue ([3]; 0.45 mg/kg single iv dose): 0.549 µg/g | Oligonucleotide content in liver tissue ([3]; 0.45 mg/kg single iv dose): 0.710 µg/g | Oligonucleotide content in kidney tissue ([3]; 0.89 mg/kg single iv dose): 1.040 µg/g | Oligonucleotide content in liver tissue ([3]; 0.89 mg/kg single iv dose): 1.478 µg/g | liver to kidney ratio compared to unconjugated (naked) oligonucleotide (compound F) ([3]; in words, tables 9 to 11): improved liver to kidney ratio | Oligonucleotide content, Avg kidney ([4]; Day 7, kidney tissue): 0.153 µg/g | Oligonucleotide content, Avg liver ([4]; Day 7, liver tissue): 0.276 µg/g | Oligonucleotide content, Avg kidney ([4]; Day 14, kidney tissue): 0.079 µg/g | Oligonucleotide content, Avg liver ([4]; Day 14, liver tissue): 0.163 µg/g | ApoB mRNA expression as % of saline in kidney (ApoB mRNA [5]; 0.22 mg/kg single iv dose): 117.0 % of saline | ApoB mRNA/mGAPDH expression as % of saline in liver (ApoB mRNA [5]; 0.22 mg/kg single iv dose): 12.8 % of saline | ApoB mRNA expression as % of saline in kidney (ApoB mRNA [5]; 0.45 mg/kg single iv dose): 90.7 % of saline | ApoB mRNA/mGAPDH expression as % of saline in liver (ApoB mRNA [5]; 0.45 mg/kg single iv dose): 6.3 % of saline | ApoB mRNA expression as % of saline in kidney (ApoB mRNA [5]; 0.89 mg/kg single iv dose): 64.1 % of saline | ApoB mRNA/mGAPDH expression as % of saline in liver (ApoB mRNA [5]; 0.89 mg/kg single iv dose): 3.0 % of saline | ApoB knock down in the liver (ApoB mRNA [5]; in words, single iv dose): improved ApoB knock down in the liver

5′-cOaOGS^mCSaStStSgSgStSaStSTS^mCSA-3′ [K]
ApoB mRNA/mGAPDH expression as % of saline, Avg kidney (ApoB mRNA [1]; Day 7, kidney): 80.2 % of saline | ApoB mRNA/mGAPDH expression as % of saline, Avg liver (ApoB mRNA [1]; Day 7, liver): 48.7 % of saline | ApoB mRNA/mGAPDH expression as % of saline, Avg kidney (ApoB mRNA [1]; Day 14, kidney): 86.2 % of saline | ApoB mRNA/mGAPDH expression as % of saline, Avg liver (ApoB mRNA [1]; Day 14, liver): 112.4 % of saline | ALT levels (U/L) in serum as % of saline (ALT in serum (Example 7); Day 7): 170.3 % of saline | ALT levels (U/L) in serum as % of saline (ALT in serum (Example 7); Day 14): 77.3 % of saline | Oligonucleotide content, Avg kidney ([4]; Day 7, kidney tissue): 0.275 µg/g | Oligonucleotide content, Avg liver ([4]; Day 7, liver tissue): 0.401 µg/g | Oligonucleotide content, Avg kidney ([4]; Day 14, kidney tissue): 0.129 µg/g | Oligonucleotide content, Avg liver ([4]; Day 14, liver tissue): 0.173 µg/g

5′-cOaOGS^mCSaStStSgSgStSaStSTS^mCSA-3′ [Compound C]
ApoB mRNA/mGAPDH expression as % of saline, Avg kidney (ApoB mRNA [1]; Day 7, kidney): 93.8 % of saline | ApoB mRNA/mGAPDH expression as % of saline, Avg liver (ApoB mRNA [1]; Day 7, liver): 63.2 % of saline | ApoB mRNA/mGAPDH expression as % of saline, Avg kidney (ApoB mRNA [1]; Day 14, kidney): 74.4 % of saline | ApoB mRNA/mGAPDH expression as % of saline, Avg liver (ApoB mRNA [1]; Day 14, liver): 116.3 % of saline | ALT levels (U/L) in serum as % of saline (ALT in serum (Example 7); Day 7): 136.7 % of saline | ALT levels (U/L) in serum as % of saline (ALT in serum (Example 7); Day 14): 111.3 % of saline | Oligonucleotide content, Kidney ([6]; 0.1 mg/kg single sc dose): 0.080 μg/g tissue | Oligonucleotide content, Liver ([6]; 0.1 mg/kg single sc dose): 0.028 μg/g tissue | Oligonucleotide content, Kidney ([6]; 0.25 mg/kg single sc dose): 0.080 μg/g tissue | Oligonucleotide content, Liver ([6]; 0.25 mg/kg single sc dose): 0.028 μg/g tissue | uptake in liver and kidney compared to the unconjugated oligonucleotide (compound F) ([6]; in words): enhanced uptake in the liver and reduced uptake in the kidney | liver/kidney distribution ratio compared to GalNAc2 conjugated LNA oligonucleotide (compound G) ([6]; in words, high dose): improved liver/kidney distribution ratio | Oligonucleotide content, Avg kidney ([4]; Day 7, kidney tissue): 0.307 µg/g | Oligonucleotide content, Avg liver ([4]; Day 7, liver tissue): 0.493 µg/g | Oligonucleotide content, Avg kidney ([4]; Day 14, kidney tissue): 0.118 µg/g | Oligonucleotide content, Avg liver ([4]; Day 14, liver tissue): 0.209 µg/g | ApoB mRNA expression as % of saline, mRNA kidney (ApoB mRNA [7]; 0.1 mg/kg single sc dose): 72.4 % of saline | ApoB mRNA expression as % of saline, mRNA liver (ApoB mRNA [7]; 0.1 mg/kg single sc dose): 69.6 % of saline | ApoB mRNA expression as % of saline, mRNA kidney (ApoB mRNA [7]; 0.25 mg/kg single sc dose): 56.1 % of saline | ApoB mRNA expression as % of saline, mRNA liver (ApoB mRNA [7]; 0.25 mg/kg single sc dose): 24.0 % of saline | knock down of ApoB mRNA compared to the GalNAc2 cluster conjugated LNA oligonucleotide (compound G) (ApoB mRNA [7]; in words, high dose (0.25 mg/kg)): better knockdown | knock down of ApoB mRNA in the liver compared to unconjugated (naked) oligonucleotide (compound F) (ApoB mRNA [7]; in words, single sc dose, day 10): improved knock down
